# Data reported in article PMC11633381, “Acarbose impairs gut Bacteroides growth by targeting intracellular glucosidases” (mBio, 2024).
# Biological target: the molecule itself
# Experiment: SEC; 0.5 mL of 10.6 mg/mL BoSusA or 8.2 mg/mL SusA on HiPrep 16/60 Sephacryl S-200 HR, 20 mM HEPES, 100 mM NaCl, pH 7.0, 0.5 mL/min; compared with BioRad gel filtration standards
protein,measurement,value
"SusA, periplasmic GH13 neopullulanase/alpha-amylase of the Bacteroides thetaiotaomicron Sus (enzyme, UniProt Q8A1G0 23-617, looked up, SusA, Bacteroides thetaiotaomicron VPI-5482, locus tag bt_3704 (NCBI AAO78809.1, 617 amino acids); cloned starting with T23, after the SPI signal peptide; also called bt_3704) TSTIKKVAPTFWWAGMKNPELQILLYGDRISSADVSLSADNITLQEVVKQENPNYLVLYLDLSKAAPQNFDIILKQGKKQTKIPYELKQRRPNASAVEGFDSSDVLYLIMPDRFANGNPSNDIIPGMLEGNVDRNEPFARHGGDLKGIENHLDYIADLGVTSIWLNPIQENDMKEGSYHGYAITDYYQVDRRFGSNEEFRKLTQEANAKGLKVVMDMIFNHCGSDNYLFKDMPSKDWFNFEGNYVQTSFKTATQMDPYASDYEKKIAIDGWFTLTMPDFNQRNRHVATYLIQSSIWWIEYAGINGIRQDTHPYADFDMMARWCKAVNEEYPKFNIVGETWLGNNVLISYWQKDSRLAYPKNSNLPTVMDFPLMEEMNKAFDEETTEWNGGLFRLYEYLSQDIVYSHPMSLLTFLDNHDTSRFYRSEADTKNLDRYKQALTFLLTTRGIPQIYYGTEILMAADKANGDGLLRCDFPGGWPNDTKNCFDAANRTPQQNEAFSFMQKLLQWRKGNEVIAKGQLKHFAPNKGVYVYERKYGDKSVVVFLNGNDREQTIDLVPYQEILPASSAFDLLTEKKVELRNELTLPSREIYLLSF",stoichiometry N,2
